Patent publication US20040139485A1 (US Dept. of Health and Human Services, published 2004)

B1: pRb (retinoblastoma gene product), endogenous in rat liver epithelial cell extracts (other)
chain: PPKAPRRTAAAEPPPPPPPPPEDDPAQDSDPEELPLIRLEFEKIEEPEFIALCQKLKVPDHVRERAWLTWEKVSSVDGILEGYIQKKKELWGICIFIAAVDLDEMPFTFTELQKSIETSVYKFFDLLKEIDTSTKVDNAVSRLLKKYNVLCALYSKLERTCGLIYLTQPSSGLSTEINSMLVLKVSWITFLLAKGEVVQMEDDLVISFQLMLCVLDYFIKLSPPALLREPYKTAATPINGSPRTPRRGQNRSARIAKQLESDTRTIEVLCKEHECNVDEVKNVYFKNFIPFISSLGIVSSNGLPELESLSKRYEEVYLKSKDLDARLFLDHDKTLQTDTIDSFETERTPRKSNPDEEANMVTPHTPVRTVMNTIQQLMVILNSASDQPSENLISYFSNCTVNPKENILKRVKDVGHIFKEKFASAVGQGCIDIGAQRYKLGVRLYYRVMESMLKSEEERLSIQNFSKLLNDNIFHMSLLACALEVVMATYSRSMLQNLDSGTDLSFPWILNVLNLKAFDFYKVIESFIKVEANLTREMIKHLERCEHRIMESLAWLSDSPLFDLIKQSKDGEGPDHLESACSLSLPLQSNHTAADMYLSPIRSPKKRTSTTRVNSAANTETQAASAFHTQKPLKSTSLSLFYKKVYRLAYLRLNTLCARLLSDHPELEHIIWTLFQHTLENEYELMKDRHLDQIMMCSMYGICKVKNIDLKFKIIVTAYKDLPHAAQETFKRVLIREEEFDSIIVFYNSVFMQRLKTNILQYASTRPPTLSPIPHIPRSPYKFSSSPLRIPGGNIYISPLKSPYKISEGLPTPTKMTPRSRILVSIGESFGTSEKFQKINQMVCNSDRVLKRSAEGGNPPKPLKKLRFDIEGSDEADGSKHLPAESKFQQKLAEMTSTRTRMQKQKLNDSMEISNKEEK

Experiments:
[1] = molecular target: maltose binding protein without BOG (UniProt P0AEX9 27-392 = MBP); test: precipitation from whole cell lysates with amylose-purified protein
[2] = molecular target: B1; test: precipitation of pRb from whole cell lysates by amylose-purified BOG-MBP

Row | Binder | binding result [1] | binding result [2]
1 | B1 | no binding | –
2 | BOG-MBP chimeric protein (complete rBOG fused to the carboxy-terminal of maltose binding protein, pMAL-P2-BOG) (other, not shown: large carriers, Any vector-encoded linker between MBP and BOG is not described; also called fusion protein BOG-MBP; chimeric BOG-MBP) MVSPTKAVIVPGNGGGDVATHGWYGWVRKGLEQIPGFQCLAKNMPDPITARESIWLPFMETELHCDEKTIIIGHSSGAIAAMRYAETHQVYALILVSAYTSDLGDENERASGYFSRPWQWEKIKANCPHIIQFGSTDDPFLPWKEQQEVADSWTPNCTNSLTVVTFRTQSSMN | – | binds
